The values below come from patent US20240309113A1 (SUZHOU TRANSCENTA THERAPEUTICS, published 2024).

Positions count from the first letter of the chain named.

Usually EC50 stands for the midpoint of the concentration-response curve. By Kd is commonly meant a measure of binding affinity in units of concentration. Broadly, the koff is the first-order rate constant of dissociation. What is called kon is the second-order rate constant of association.

B1: OMS721 (hIgG4 kappa) (antibody, V domains shown)
VH: QVTLKESGPVLVKPTETLTLTCTVSGFSLSRGKMGVSWIRQPPGKALEWLAHIFSSDEKSYRTSLKSRLTISKDTSKNQVVLTMTNMDPVDTATYYCARIRRGGIDYWGQGTLVTVSS
VL: QPVLTQPPSLSVSPGQTASITCSGEKLGDKYAYWYQQKPGQSPVLVMYQDKQRPSGIPERFSGSNSGNTATLTISGTQAMDEADYYCQAWDSSTAVFGGGTKLTVLR
notes: Benchmark antibody with the variable regions of OMS721 (Narsoplimab) and the constant region of human IgG4; also called OMS721-analog
B2: 160D10 (hybridoma antibody, mouse) (antibody, V domains shown)
VH: QVQLQQSGPELVKPGASVKISCKASGYTFTDYYINWVKQRPGQGLEWVGWIFPGSDSAYYNEKFKGKATLTVDTSSSTAYMLLSSLTSEDSAVYFCARGDRSGPFPYWGQGTLVTVSA
VL: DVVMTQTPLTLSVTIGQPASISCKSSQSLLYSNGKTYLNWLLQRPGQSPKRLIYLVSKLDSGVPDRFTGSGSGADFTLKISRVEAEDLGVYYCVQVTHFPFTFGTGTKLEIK
notes: Mouse monoclonal antibody purified from hybridoma supernatant; also called 160D10 mouse/chimeric
B3: 125D5G1G2 (hybridoma antibody 125D5, mouse) (antibody, V domains shown)
VH: QVQLQQSGPDLVKPGTSVKISCTASGYTFTDYYINWVKQRPGQGLEWIGWIFPGSGSPYYNENFKGRAMFTVDYSSSSAYMLLSSLTSEDSAVYFCTRGDRSGPFAYWGQGTLVTVSA
VL: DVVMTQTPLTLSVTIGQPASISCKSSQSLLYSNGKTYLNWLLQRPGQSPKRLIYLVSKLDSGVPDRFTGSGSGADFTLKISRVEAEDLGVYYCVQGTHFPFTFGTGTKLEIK
notes: Mouse monoclonal antibody purified from hybridoma supernatant; The label 125D5G1G2 is read as a subclone of 125D5; also called 125D5 mouse/chimeric
B4: 129C10H2C1 (hybridoma antibody 129C10, mouse) (antibody, V domains shown)
VH: QVQLQQSGPELEKPGTSVKISCEASGYTFTDYYINWVQQRPGQGLEWIGWIFPGSESAYHSEKFKAKATLTVDTSSTTAYMLLTSLTSEDSAVYFCTRGDRSGPFAYWGQGTLVTVSA
VL: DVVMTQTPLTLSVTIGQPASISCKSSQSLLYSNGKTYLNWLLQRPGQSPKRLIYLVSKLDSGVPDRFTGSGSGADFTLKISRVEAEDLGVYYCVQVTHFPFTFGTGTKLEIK
notes: Mouse monoclonal antibody purified from hybridoma supernatant; The label 129C10H2C1 is read as a subclone of 129C10; also called 129C10 mouse/chimeric
B5: 160D10chiIgG4 (chimeric 160D10, human IgG4 kappa) (antibody, V domains shown)
VH: B2 VH
VL: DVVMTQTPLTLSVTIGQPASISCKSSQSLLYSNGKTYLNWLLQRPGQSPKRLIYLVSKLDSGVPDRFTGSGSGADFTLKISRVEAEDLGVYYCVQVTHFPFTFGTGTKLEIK
notes: also called 160D10 mouse/chimeric
B6: 125D5chiIgG4 (chimeric 125D5, human IgG4 kappa) (antibody, V domains shown)
VH: B3 VH
VL: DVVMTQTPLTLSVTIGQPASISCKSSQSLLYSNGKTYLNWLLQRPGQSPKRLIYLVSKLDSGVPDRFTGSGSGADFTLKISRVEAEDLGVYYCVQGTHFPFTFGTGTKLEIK
notes: also called 125D5chilgG4; 125D5 mouse/chimeric
B7: 129C10chiIgG4 (chimeric 129C10, human IgG4 kappa) (antibody, V domains shown)
VH: B4 VH
VL: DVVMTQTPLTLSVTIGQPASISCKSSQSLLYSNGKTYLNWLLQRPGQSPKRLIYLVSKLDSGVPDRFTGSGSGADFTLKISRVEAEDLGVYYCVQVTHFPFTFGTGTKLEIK
notes: also called 129C10 mouse/chimeric
B8: 129C10 HdLb (antibody, human IgG4, V domains shown)
VH: QVQLVQSGAEVKKPGASVKVSCKASGYTFTDYYINWVRQAPGQGLEWMGWIFPGSESAYHSQKFQGRATLTVDTSISTAYMELSRLRSDDTAVYYCTRGDRSGPFAYWGQGTLVTVSS
VL: DVVMTQSPLSLPVTLGQPASISCKSSQSLLYSNGKTYLNWLQQRPGQSPRRLIYLVSKLDSGVPDRFSGSGSGADFTLKISRVEAEDVGVYYCVQVTHFPFTFGQGTKLEIK
notes: Humanized
B9: 129C10 HcLb (antibody, human IgG4, V domains shown)
VH: B8 VH with A68V, L70M
VL: B8 VL
notes: Humanized
B10: 129C10 HdLa (antibody, human IgG4, V domains shown)
VH: B8 VH
VL: B8 VL with A74T
notes: Humanized
B11: 129C10 HbLb (antibody, human IgG4, V domains shown)
VH: B8 VH with Q62E, Q65K, G66A
VL: B8 VL
notes: Humanized
B12: 129C10 HcLa (antibody, human IgG4, V domains shown)
VH: B8 VH with A68V, L70M
VL: B8 VL with A74T
notes: Humanized
B13: 129C10 HbLa (antibody, human IgG4, V domains shown)
VH: B8 VH with Q62E, Q65K, G66A
VL: B8 VL with A74T
notes: Humanized
B14: 129C10 HaLb (antibody, human IgG4, V domains shown)
VH: B8 VH with Q62E, Q65K, G66A, A68V, L70M
VL: B8 VL
notes: Humanized

T3 sequence (O00187 16-686): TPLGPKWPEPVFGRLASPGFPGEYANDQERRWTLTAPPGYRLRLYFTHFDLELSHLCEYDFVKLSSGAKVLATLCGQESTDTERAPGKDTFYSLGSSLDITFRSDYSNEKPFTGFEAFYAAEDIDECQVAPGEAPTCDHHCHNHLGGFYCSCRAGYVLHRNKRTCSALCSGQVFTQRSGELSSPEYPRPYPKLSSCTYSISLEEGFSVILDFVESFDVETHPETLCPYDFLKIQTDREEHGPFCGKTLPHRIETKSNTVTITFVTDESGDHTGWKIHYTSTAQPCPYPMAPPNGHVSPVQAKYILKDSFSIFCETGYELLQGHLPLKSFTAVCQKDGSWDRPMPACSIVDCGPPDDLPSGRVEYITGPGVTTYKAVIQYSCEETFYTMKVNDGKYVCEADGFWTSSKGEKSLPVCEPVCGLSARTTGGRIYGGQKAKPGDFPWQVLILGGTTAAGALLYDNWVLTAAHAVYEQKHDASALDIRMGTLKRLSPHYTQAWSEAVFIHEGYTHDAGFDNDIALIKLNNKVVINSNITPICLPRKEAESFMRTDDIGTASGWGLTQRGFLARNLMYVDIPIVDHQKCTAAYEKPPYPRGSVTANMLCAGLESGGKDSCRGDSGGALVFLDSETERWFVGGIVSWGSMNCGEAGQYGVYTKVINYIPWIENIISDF
T4 sequence (MASP-2 polypeptide, as listed by the source limits assumed): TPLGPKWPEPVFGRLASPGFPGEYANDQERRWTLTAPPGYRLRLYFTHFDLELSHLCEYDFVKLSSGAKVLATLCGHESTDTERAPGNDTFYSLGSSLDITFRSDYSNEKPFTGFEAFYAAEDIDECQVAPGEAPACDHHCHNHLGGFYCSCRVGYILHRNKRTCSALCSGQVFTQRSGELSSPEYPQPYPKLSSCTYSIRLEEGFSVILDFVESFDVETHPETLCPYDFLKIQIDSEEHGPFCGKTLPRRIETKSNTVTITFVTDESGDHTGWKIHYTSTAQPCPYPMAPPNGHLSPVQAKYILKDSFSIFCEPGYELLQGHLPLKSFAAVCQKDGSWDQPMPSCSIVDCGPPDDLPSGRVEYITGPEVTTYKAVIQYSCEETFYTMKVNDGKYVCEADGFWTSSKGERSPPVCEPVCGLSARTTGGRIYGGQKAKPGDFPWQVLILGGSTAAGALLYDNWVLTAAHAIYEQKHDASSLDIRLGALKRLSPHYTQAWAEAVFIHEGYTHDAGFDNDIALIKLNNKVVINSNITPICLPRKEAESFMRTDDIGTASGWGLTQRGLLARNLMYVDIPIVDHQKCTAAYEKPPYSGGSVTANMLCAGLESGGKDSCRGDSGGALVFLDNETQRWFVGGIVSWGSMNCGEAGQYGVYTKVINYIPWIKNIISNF

In the first experiment the target is T1, Rat MASP2 (rat, UniProt Q9JJS8).
T1 construct: purchased protein coated on the ELISA plate at 1 ug/ml
T1 sequence (Q9JJS8 20-685 limits assumed): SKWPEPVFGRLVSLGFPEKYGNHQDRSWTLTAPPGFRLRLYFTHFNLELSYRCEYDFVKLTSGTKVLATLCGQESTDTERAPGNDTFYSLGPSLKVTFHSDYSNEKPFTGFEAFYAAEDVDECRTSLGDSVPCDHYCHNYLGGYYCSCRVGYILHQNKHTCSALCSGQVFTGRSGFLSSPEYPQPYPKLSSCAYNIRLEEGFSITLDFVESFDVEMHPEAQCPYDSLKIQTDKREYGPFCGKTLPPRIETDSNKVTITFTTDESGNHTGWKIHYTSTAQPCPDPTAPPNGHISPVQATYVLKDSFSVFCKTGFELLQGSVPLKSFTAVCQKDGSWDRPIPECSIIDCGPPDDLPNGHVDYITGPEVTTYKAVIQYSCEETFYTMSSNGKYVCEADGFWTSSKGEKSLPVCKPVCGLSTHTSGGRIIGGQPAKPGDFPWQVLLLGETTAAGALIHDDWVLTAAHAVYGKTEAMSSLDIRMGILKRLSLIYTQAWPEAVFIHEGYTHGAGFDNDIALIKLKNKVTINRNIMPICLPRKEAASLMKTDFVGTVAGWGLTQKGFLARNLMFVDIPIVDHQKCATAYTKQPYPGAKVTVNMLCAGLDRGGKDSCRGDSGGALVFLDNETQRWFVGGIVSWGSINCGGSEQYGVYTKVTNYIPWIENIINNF
Nature of the experiment: ELISA; plate coated with rat MASP2 (1 ug/ml), serially diluted antibody, mouse anti-human IgG4 Fc HRP, OD450. (ELISA stands for enzyme-linked immunosorbent assay.)
B1: the EC50 came out at 12.3 µg/mL.

For the next experiment, the target named is T2, Mouse MASP2 (mouse, UniProt Q91WP0).
T2 construct: purchased protein coated on the ELISA plate at 1 ug/ml
T2 sequence (Q91WP0 20-685 limits assumed): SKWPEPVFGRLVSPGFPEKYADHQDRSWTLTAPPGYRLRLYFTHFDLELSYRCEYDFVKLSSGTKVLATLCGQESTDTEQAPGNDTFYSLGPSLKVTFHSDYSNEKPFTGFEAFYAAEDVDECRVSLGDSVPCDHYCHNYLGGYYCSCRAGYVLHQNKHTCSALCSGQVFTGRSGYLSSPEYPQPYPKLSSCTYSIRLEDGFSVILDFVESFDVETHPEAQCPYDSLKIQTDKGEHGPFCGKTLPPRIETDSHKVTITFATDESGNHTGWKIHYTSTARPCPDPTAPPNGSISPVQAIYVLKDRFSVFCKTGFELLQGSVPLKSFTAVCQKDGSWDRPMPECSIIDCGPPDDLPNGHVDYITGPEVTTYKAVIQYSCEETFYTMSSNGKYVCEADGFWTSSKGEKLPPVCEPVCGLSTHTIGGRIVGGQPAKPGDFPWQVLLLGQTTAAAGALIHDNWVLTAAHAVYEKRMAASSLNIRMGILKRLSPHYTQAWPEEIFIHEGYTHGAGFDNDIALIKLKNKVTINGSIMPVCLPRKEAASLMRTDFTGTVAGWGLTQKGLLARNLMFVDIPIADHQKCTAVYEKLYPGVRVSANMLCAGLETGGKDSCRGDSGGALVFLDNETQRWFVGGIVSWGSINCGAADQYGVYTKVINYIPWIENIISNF
Nature of the experiment: ELISA; plate coated with mouse MASP2 (1 ug/ml), serially diluted antibody, mouse anti-human IgG4 Fc HRP, OD450.
For the molecule B1, a half-maximal response (EC50) required 4.91 µg/mL.

A further experiment concerns the target T3, human MASP-2 protein (recombinant, full-length, C-terminal tag) (human, UniProt O00187 16-686).
T3 construct: The protein was secreted and purified on an anti-FLAG or anti-HIS column; also called hMASP-2; Full-length human MASP-2 protein; not shown: C-terminal HIS-tag or FLAG-tag
Nature of the experiment: BLI (ForteBio Octet RED96), antibody on Protein A biosensor, human MASP-2 in solution (100, 50, 25 nM). In general terms: In BLI a coated tip is dipped into the sample, and binding shifts an interference pattern.
Consider B2, for which the Kd stood at 27.8 nM, the koff worked out at 0.001 s⁻¹ and the on-rate (kon) came out at 36100 M⁻¹ s⁻¹.

Consider B3, for which the equilibrium dissociation constant (Kd) worked out at 1.64 nM, the koff stood at 9.73e-05 s⁻¹ and the on-rate constant (kon) amounted to 59400 M⁻¹ s⁻¹.

As to B4, the dissociation constant Kd stood at 0.746 nM, the koff was 4.78e-05 s⁻¹ and the on-rate constant (kon) was determined as 64000 M⁻¹ s⁻¹.

Another experiment addresses T3, human MASP-2 protein (recombinant, …). The experiment is described as above. This is another data set of the same source.
On to B5, for which the dissociation constant (Kd) came out at 0.984 nM, the off-rate constant (koff) worked out at 3.34e-05 s⁻¹ and the on-rate constant (kon) amounted to 34000 M⁻¹ s⁻¹.

As for B6, the dissociation constant (Kd) was 19.5 nM, the off-rate (koff) was 0.000499 s⁻¹ and the kon is 25600 M⁻¹ s⁻¹.

For the molecule B7, the dissociation constant (Kd) was 8.02 nM, the dissociation rate constant (koff) was determined as 0.000206 s⁻¹ and the kon came to 25700 M⁻¹ s⁻¹.

On to B8, for which the equilibrium dissociation constant (Kd) was under 0.001 nM, the koff was under 1e-07 s⁻¹ and the on-rate (kon) was 36000 M⁻¹ s⁻¹.

B9: the dissociation constant Kd amounted to 1.36 nM, the koff was found to be 4.56e-05 s⁻¹ and the kon was determined as 33700 M⁻¹ s⁻¹.

Regarding B10, the dissociation constant Kd was determined as 17.1 nM, the koff came out at 0.000425 s⁻¹ and the kon was 24900 M⁻¹ s⁻¹.

Regarding B11, the dissociation constant Kd was under 0.001 nM, the dissociation rate constant (koff) was under 1e-07 s⁻¹ and the kon stood at 32900 M⁻¹ s⁻¹.

Turning to B12, the dissociation constant (Kd) was under 0.001 nM, the koff is under 1e-07 s⁻¹ and the kon was 35200 M⁻¹ s⁻¹.

Regarding B13, the Kd was under 0.001 nM, the dissociation rate constant (koff) was under 1e-07 s⁻¹ and the kon is 32900 M⁻¹ s⁻¹.

Take B14: the Kd amounted to 11.4 nM, the koff was determined as 0.000291 s⁻¹ and the kon is 25500 M⁻¹ s⁻¹.

Another experiment has as its target T4, Cyno MASP2.
T4 construct: Recombinant coated protein; distinct from m29 (native MASP-2 in cynomolgus serum); also called cynomolgus MASP-2 (recombinant, generated in house)
Nature of the experiment: ELISA; plate coated with cynomolgus MASP2 (1 ug/ml), serially diluted antibody, mouse anti-human IgG4 Fc HRP, OD450.
Molecule B1 came in with a half-maximal effective concentration (EC50) of 0.0181 µg/mL.
